Assay results from patent US10556007B2, “Antibody which binds Lrg1 and methods of use” (UCL Business PLC, priority 2015, dated 2020).
Entries after “also recorded” stand apart in the source; their conditions may differ.

Legend:
[1] = molecular target: T1, human Lrg1 (Homo sapiens, UniProt P02750); assay: Western blot specificity for human Lrg1; format: binding; settings: conditioned medium from MDA-MB cells, human vitreous, whole human serum
T1 sequence (P02750 36-347): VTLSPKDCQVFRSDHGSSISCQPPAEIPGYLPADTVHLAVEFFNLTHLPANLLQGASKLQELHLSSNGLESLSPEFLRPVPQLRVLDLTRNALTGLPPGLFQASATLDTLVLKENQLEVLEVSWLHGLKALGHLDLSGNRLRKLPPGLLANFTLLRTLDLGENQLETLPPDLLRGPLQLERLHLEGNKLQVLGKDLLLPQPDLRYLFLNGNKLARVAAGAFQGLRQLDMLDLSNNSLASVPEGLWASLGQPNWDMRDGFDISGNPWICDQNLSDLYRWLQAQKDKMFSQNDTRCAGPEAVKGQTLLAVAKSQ
Description: To evaluate the specificity of the lead mAbs for human Lrg1 western blot analysis of each was performed against conditioned medium from the MDA-MB human tumour cell line, samples of human vitreous humour, and samples of whole human serum.

[2] = tested on: Lrg1 (rhLrg1 and liver extracts from mouse, rat, rabbit, monkey, dog and cat); assay: Species cross-reactivity ELISA on liver extracts; format: binding; settings: mAb at 100 nM
Description: Species cross-reactivity was carried out by ELISA in a protocol in which multiwall plates were coated with rhLrg1, and liver extracts from mouse, rat, rabbit, monkey, dog and cat.

[3] = molecular target: T2, Lrg1 (overlapping 15-mer peptides and full length) (Homo sapiens, UniProt P02750); assay: Epitope mapping on ProArray Ultra peptide microarray; format: binding
T2 sequence (P02750 36-347): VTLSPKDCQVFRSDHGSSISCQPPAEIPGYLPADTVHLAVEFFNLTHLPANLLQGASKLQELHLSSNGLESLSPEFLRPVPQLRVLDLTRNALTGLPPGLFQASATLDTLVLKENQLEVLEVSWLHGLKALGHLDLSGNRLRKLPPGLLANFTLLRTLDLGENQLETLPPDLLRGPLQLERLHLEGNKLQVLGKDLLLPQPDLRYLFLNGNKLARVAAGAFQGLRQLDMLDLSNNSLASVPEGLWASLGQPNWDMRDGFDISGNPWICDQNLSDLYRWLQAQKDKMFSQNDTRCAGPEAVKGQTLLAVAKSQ
Description: The determination of peptide-antibody binding was performed by incubation of serum or antibody samples with a ProArray Ultra® peptide microarray, followed by incubation with a fluorescent-labelled secondary antibody.
All peptides were synthesized separately, and then bound to the ProArray Ultra® slide surface using Prolmmune's proprietary technology. This optimised process ensured that peptides were presented on the array in such a manner as to closely mimic the properties of the corresponding protein region, circumventing the inherent physiochemical variation of the free peptides themselves and making a compatible, combined peptide and protein array platform. The test analytes (peptides or proteins) were dispensed onto the ProArray Ultra® slide in discrete spots and appropriate gal-files enabled exact alignment of the resulting array features back to the analyte deposited.
ProArray Ultra® slides were blocked using a validated blocking buffer to reduce non-specific binding of the sera. […] After several washing steps, the ProArray Ultra® arrays were dried and scanned using a high-resolution fluorescence microarray scanning system. […]
ProArray Ultra® slides containing the immobilised peptides were incubated with the antibody samples. […] The murine IgG positive controls were detected in all samples. […]

[4] = tested on: laser-induced choroidal neovascularisation; assay: Mouse model of laser-induced CNV; format: in vivo; settings: intraocular injection at lasering, FFA after 7 days
Description: The images on the left of FIG. 17A show a typical wild-type mouse retina under normal illumination (Fundus), and under fluorescence illumination, 7 days after three laser burns were administered to the retinal pigment epithelium. Fluorescence images were captured ˜60 seconds after systemic dosing with fluorescein (Early Phase FFA) and again after ˜7 minutes (Late Phase FFA). At the time of lasering, animals received intraocular injections of either control IgG (top panels) or 15C4 (lower panels). The Early Phase FFA images show the size of the lesions, and the Late Phase images show leakage of fluorescein into the retina. Lesion sizes were quantified for 15C4 at 2.5, 5 and 10 μg doses, and also Eylea at 2 and 4 μg, and the % blocking is a measure of average lesion size relative to that observed in the controls. On the far right a similar analysis was undertaken using Eylea and Magacizumab (both at 2.1 μg) alone and in combination.
Wild type C57B6 mice were anaesthetized and received intravitreal injections of various doses of either Magacizumab, Eylea, or both in combination, immediately following laser photocoagulation of the retinal pigment epithelium. After 7 days (to allow the vascular lesions to form) the mice were again anaesthetized and examined by fluorescein angiography (FFA). Early phase FFA images (taken after 90 s) show the degree of vascularization at the lesion site. Measurement of the lesion area in the early phase images permits quantification in which percentage lesion size is normalized against the IgG4 control (FIG. 18).

[5] = tested on: LL/2 tumours; assay: LL/2 tumour vasculature; format: in vivo, mouse; settings: wild type mice, 50 mg per kg
Source text: B16/F0 and LL/2 […] tumour cell lines were grafted into wild type and Lrg1 knockout mice.

[6] = tested on: B16/F0 tumours; assay: B16/F0 subcutaneous tumour vasculature; format: in vivo, mouse
Description: The adherent cell line B16/F0 was harvested and single-cell suspensions of 1×10^6 cells in 100 μl PBS was injected subcutaneously into the lower back of C57B1/6 mice. Tumours were measured every other day with a caliper and volume was calculated using the formula: V=(4/3)×π×(L/2)×(W/2)×(H/2). The mice were sacrificed at defined time intervals or after the tumors reached 2000 mm^3. Treatment with 15C4 or IgG was started after three days at 50 mg/kg by intraperitoneal injections, and repeated every 3 days. Vessels were identified by CD31 immunohistochemistry on tumour sections (FIG. 11).

B1: 15C4: mouse monoclonal antibody against human Lrg1, VH SEQ ID NO: 1, VL SEQ ID NO: 2 (antibody, V domains shown)
VH: QVQLQQSGDEVVRPGSSVKISCKASGYTFSGYWMNWVKQRPGQGLQWIGQIYPGDGDTNYNGKFKGKATLTADKSSSTAYMQLSTLTSEDSAIYFCARSITTVVLDYWGQGTTLTVSS
VL: DIVLTQSPVSLAVSLGQRATISCRASQSVSTSGYSFMHWYQQKPGQPPKFLIKYASNLESGVPARFSGSGSGTDFTLNIHPVEEEDTATYYCQHSWEMPLTFGAGTKLELK
modifications: 15C4 Variable Heavy Chain; 15C4 Variable light chain
- recognition of Lrg1 band on western blot [1]: strongly recognise a single band of Lrg1 at 50 kD in the conditioned medium and vitreous
- cross-reactivity with rodent Lrg1 [2]: None of antibodies 4H2, 3A11 or 15C4 exhibited strong cross-reactivity with rodent Lrg1
- binding to full length Lrg1 on array [3]: binder at all dilutions
- lesion formation [4]: inhibited lesion formation; also recorded: inhibit lesion formation with similar efficacy to the VEGF blocker Eylea
- replication of Lrg1 knockout tumour vessel phenotype [5]: These results were mimicked
- endothelial and pericyte co-localisation ([6]; C57BL6 mice, CD31 with αSMA or NG2, vs IgG): increases endothelial and pericyte co-localisation
- small vessels / distribution of vessel sizes (CD31) ([6]; C57Bl/6 mice, 50 mg/kg IP every 3 days, vs IgG controls): Fewer small vessels
- replication of Lrg1 knockout tumour vessel phenotype ([6]; wild type mice, 50 mg per kg): drives normalisation of tumour vessels; also recorded: These results were mimicked; also recorded: blood vessels are more functional and mature
